Experimental data: patent publication US20220125947A1

Tests used:
[1] = target: Vg9/Vd1 T cell receptor on SKW3 cells (UniProt Q99603); experiment: flow cytometry, DRC binding at 37°C on SKW3 cells expressing Vg9/Vd1
[2] = target: Vg9/Vd2 T cell receptor on SKW3_4 cells (UniProt Q99603); experiment: flow cytometry, DRC binding at 37°C on SKW3_4 cells expressing Vg9/Vd2
[3] = target: Vg5/Vd2 T cell receptor on SKW3 cells (UniProt A0JD36); experiment: flow cytometry, DRC binding at 37°C on SKW3 cells expressing Vg5/Vd2
Chain of Vg5/Vd2 T cell receptor on SKW3 cells (A0JD36 20-115): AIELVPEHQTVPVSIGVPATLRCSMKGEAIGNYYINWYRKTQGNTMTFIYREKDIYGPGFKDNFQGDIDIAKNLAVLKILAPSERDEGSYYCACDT

[4] = target: Vg9/Vd1 T cell receptor on SKW3 cells (UniProt Q99603); experiment: flow cytometry, dose-response binding at 37 C on SKW3 cells expressing Vg9/Vd1
[5] = target: Vg9/Vd2 T cell receptor on SKW3_4 cells (UniProt Q99603); experiment: flow cytometry, dose-response binding at 37 C on SKW3_4 cells expressing Vg9/Vd2
[6] = target: Vg5/Vd2 T cell receptor on SKW3 cells (UniProt A0JD36); experiment: flow cytometry, dose-response binding at 37 C on SKW3 cells expressing Vg5/Vd2

Chain of Vg9/Vd2 T cell receptor on SKW3_4 cells (Q99603 21-122, chain 1 of 2): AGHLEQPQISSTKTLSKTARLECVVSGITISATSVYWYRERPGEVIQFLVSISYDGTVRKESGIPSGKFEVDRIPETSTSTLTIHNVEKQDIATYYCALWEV
Chain of Vg9/Vd2 T cell receptor on SKW3_4 cells (A0JD36 20-115, chain 2 of 2, further chain): as the sequence (A0JD36 20-115) above
Chain of Vg9/Vd1 T cell receptor on SKW3 cells (Q99603 21-122): as the sequence (Q99603 21-122, chain 1 of 2) above

| Binder | Max. Activity (fold over background) [1] | Max. Activity (fold over background) [2] | Max. Activity (fold over background) [3] | Max. Activity (fold over background) [4] | Max. Activity (fold over background) [5] | Max. Activity (fold over background) [6] |
| --- | --- | --- | --- | --- | --- | --- |
| VG9B86 (antibody, human IgG1, kappa, V domains shown) VH: QVQLQESGPGLVKPSETLSLTCTVSGDSISSSYWSWIRQPAGKGLECIGRFYSSGSTSYNPSLKSRVTMAIDTSKNQFSLKLTSVTAADTAVYYCARYSGSYWYFDLWGRGTTVTVSS VL: EIVLTQSPATLSLSPGERATLSCRASQSVSSYLAWYQQRPGQAPRLLIYDTSNRATGIPARFSGSGSGTDFTLTISSLAPEDFAVYYCQQRSDWLLTFGGGTKVEIKR | 1.16 | 138 | 207 |  |  |  |
| VG9B201 (antibody, human IgG1, lambda, V domains shown) VH: QVTLKESGPTLVKPTQTLTLTCTFSGFSLTTHGVGVGWIRQPPRKALEWLALIYWNADKHYSPSLKSRLTITKDTSKNQVVLTMTHMDPVDTATYYCAHEGDWGHYFDFWGQGTLVTVSS VL: QLVLTQPPSVSAAPGQKVTISCSGSSSNIGNNDVSWYQQLPGTAPKLLIYDNNRRPSGIPDRFSGSKSGTSATLGITGLQTGDEADYYCETWDSSLSAIWVFGGGTKVTVLG | 2.74 | 152 | 205 |  |  |  |
| VG9B194 (antibody, human IgG1, lambda, V domains shown) VH: EVQLLESGAEVKKPGASVKVSCKASGYTFTGDYMHWVRQAPGQGLEWMGWINPNSGYTNNAEKFQGRVTMTRDTSISTAYMELSRLSSDDTAVYYCTRELDALDVWGQGTMVTVSS VL: QSVLTQPPSASGSPGQSVTISCTGTSSDVGGYNYVSWYQQHPGKAPKLMIYEVSKRPSGVPDRFSGSKSGNTASLTVSGLQAEDEADYYCNSYAGSNNFEVFGGGTKVTVLG | 6.29 | 151 | 148 |  |  |  |
| VG9B383 (antibody, human IgG1, lambda, V domains shown) VH: QVQLQESGPGLVKPSETLSLTCTVSSGSISSYYWNWIRQPAGKGLEWVGRIYTIGNTNYNPSLKSRVTMSIDTSKNQFSLNLSSVTAADTAVYFCAREGYYDSSGSFFPGAFGIWGQGTMVTVSS VL: SSELTQPASVSGSPGQSITISCTGTSNDVGSYNLVSWYQQHPGKAPKLMIYAGSKRPSGISNRFSGSKSGNTASLTISGLQAEDEADYYCCSFAGATNVVFGGGTKLTVLG | 1.36 | 184 | 284 |  |  |  |
| VG9B465 (antibody, human IgG1, lambda, V domains shown) VH: QVQLQQSGPGLVKPSETLSLTCTVSGGSITSYYWNWIRQPAGKGLEWIGRIYTIGNTNYNPSLKSRVTMSIDTSKHQFSLKLSSVTGADTAVYYCAREGYYESDGSFFPGAFNIWGQGTMVTVSS VL: SSELTQPASVSGSPGQSITISCTGTSNDVGSYNLVSWYQQHPGKAPKLMIYAGSKRPSGISNRFSGSKSGNTASLTISGLQAEDEADYYCCSYAGTTNVVFGGGTKVTVLG | 7.28 | 148 | 214 |  |  |  |
| VG9B58 (antibody, human IgG1, kappa, V domains shown) VH: QVQLQESGPGLVKPSETLSLTCTVSGGSIKSSYWTWIRQPPGKGLEWIGYMFYLGSTNYNPSLKSRVTMSIDTSRNQFSLKLSSVTAADTAVYYCSRERPVLDAFDIWGQGTMVTVSS VL: DIQMTQSPSAMSASVGDRVTITCRASQDITNYLAWFQQKPGKVPKRLIYAASSLQGGVPSRFSGSGSGTEFTLTISSLQPEDFSTYYCLQHDTYPYTFGQGTKVDIKR |  |  |  | 350 | 160 | 1.49 |
| VG9B470 (antibody, human IgG1, kappa, V domains shown) VH: QVTLKESGPTLVKPTQTLTLTCTFSGFSLTTSGVGVGWIRQPPGKALEWLALILWNDHTIYSPSLKSRLTITKDTSKNQVVLTMTNMDPVDTAAYFCARDKWELRDAFDIWGQGTMVTVSS VL: EIVMTQSPSFLSASVGDRVTFTCRASQGISRYLAWYQQKPGRAPNLLIYVASTLQSGVPSRFSGSGSGTEFTLTISSLLPEDFATYYCQQLISYPYTFSQGTRLEIKR | 1.59 | 167 | 231 |  |  |  |
| VG9B143 (antibody, human IgG1, lambda, V domains shown) VH: EVQLVESGGGLVQPGGSLRLSCAASGFTFSTYGMNWVRQAPGKGLEWISYISTSSYTIYYSDSVKGRFTVSRDNAKNSLYLQMNSLRDEDTAVYYCAREGDWWYFDLWGRGTTVTVSS VL: QSALTQPASVSGSPGQSITISCTGTSSDVGGYNYVSWYQQHPGKAPKLMIYEVSNRPSGVSYRFSGSKSGNTASLTISGLQAEDEADYYCSSYTSSSTLVFGGGTKLTVLG |  |  |  | 241 | 97.3 | 1.07 |
| VG9B411 (antibody, human IgG1, kappa, V domains shown) VH: EVQLVESGGGLVKPGGSLRLSCSASGFTFSNYDMNWVRQAPGKGLEWVSSISSSSSYIYYADSVKGRFTISRDNAKNSLYLQMNSLRAEDTAVYHCARDVGVTTDYYYYGMDVWGQGTTVTVSS VL: EIVMTQSPSSVSASVGDRVTITCRASQGINSWLAWYQQDPYKAPKLLIYAASTLQSGVPSRFGGRGSGTEFTLTISSLQPEDFAVYYCQQYNNWPRTFGQGTKVDIKR | 24.9 | 19.1 | 2.76 |  |  |  |
| VG9B88 (antibody, human IgG1, kappa, V domains shown) VH: EVQLVESGGGLVKPGGSLRLSCAVSGFTFSSYTMNWVRQAPGKGLEWVSSISTSSSYIDYADSVKGRFTISRDNAKKSLYLQMNSLRAEDTAVYYCARDGDMVAPIKGSFDYWGQGTLVTVSS VL: EIVLTQSPLSLPVTPGEPASISCRSSQSLLNSDDGNTYLDWYLQKPGQSPQLLIYTLSYRASGVPDRFSGSGSGTDFTLKISRVEAEDVGVYYCMQRIEFPITFGQGTRLEIKR |  |  |  | 346 | 154 | 18.8 |
| VG9B396 (antibody, human IgG1, lambda, V domains shown) VH: EVQLVESGPGLVQPSETLSLTCTVSGDSIRGYYWNWIRQPAGKGLEWIGRIFTTGNTNYNPSLKSRLTMSLDTSKNQFSLKLNSVTAADTAVYYCAREKWDSSSSALYFDFWGQGTLVTVSS VL: QSVLTQAPSVSGAPGQRVTISCTGSSSNIGADYDVKWYQQLPGTAPKLLIYGNTDRPSGVPDRFSGSKSGTSASLAITGLQAEDEADYYCQSYDSRLTGYVVFGGGTKLTVLG | 2.19 | 155 | 222 |  |  |  |
| VG9B382 (antibody, human IgG1, lambda, V domains shown) VH: QVQLQESGPGLVKPSETLSLTCTVSGDSISGYYWNYIRQPAGKGLDWIGRIFTTGNTNYNPSLKSRVTMSVDTSKNQFSLKLTSVTAADTAVYYCARERWDSSSSALYFDYWGQGTLVTVSS VL: QSVLTQPPSVSGAPGQRVTISCTGSSSNIGADYDIKWYQQLPGTAPKLLIYGNSNRPSGVPDRFSGSKSGTSVSLAITGLQAEDEADYYCQSYDSSMSGYVVFGGGTKLTVLG | 1.04 | 177 | 275 |  |  |  |
| VG9B472 (antibody, human IgG1, kappa, V domains shown) VH: QVQLVESGGGLVKPGGSLRLSCAASGFTFSHYDMNWVRQAPGKGLEWVSSISSSSSYIFYADSVKGRFTISRDNAKNSLLLQMNSLRAEDTAVYHCARDRGVGDTSDYYSFGLDVWGQGTTVTVSS VL: EIVLTQSPSSLSASVGDRVTITCRASQGIATYLAWYQQKPGKVPNLLIYAASTLQSGVPSRFSGSGSGTDFTLTISSLQPEDVATYYCQKYNSAPPWTFGQGTKVEIKR |  |  |  | 328 | 171 | 2.22 |
